This is an account of results in article PMC2597375 (Nature structural & molecular biology, 2008).

Where no end group is shown, it is not given here. [ ]: non-standard residue; d: D form. pS = N[C@@H](COP(=O)(O)O)C(=O)O

The target in assay [1] is unlabeled double-repeat CTD-Ser5P peptide (S. cerevisiae). The experiment in a line: fluorescence polarisation. A general note: Fluorescence polarisation rises when a labelled molecule tumbles more slowly, as on binding a larger partner.
Assay [2] has as its target unlabeled double-repeat CTD-Ser2P/Ser5P peptide (S. cerevisiae). The experiment in a line: fluorescence polarisation.
For assay [3], the system named is Pol II. Format: binding, S. cerevisiae. The following applies: whole-cell extracts, IgG purification, anti-CTD Ser5P (H14) immunoblot. (In western blotting, separated proteins are transferred to a membrane and probed.)
Assay [4] deals with CTD. Description: CTD binding of Nrd1 variants. The following applies: point mutants: fluorescence anisotropy, Table 1; deletions: data not shown.
Assay [5] concerns the target T1, Nrd1_(6–151) wild-type (S. cerevisiae, UniProt P53617 6-151).
T1 sequence: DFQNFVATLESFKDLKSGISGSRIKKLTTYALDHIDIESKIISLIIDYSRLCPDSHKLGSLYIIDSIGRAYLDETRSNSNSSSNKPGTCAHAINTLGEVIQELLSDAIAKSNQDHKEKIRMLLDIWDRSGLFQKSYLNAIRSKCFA
Description: fluorescence polarisation.

In assay [6] the target is T2, Nrd1_(6–151) L20D (S. cerevisiae, UniProt P53617 6-151, L20D).
T2 sequence: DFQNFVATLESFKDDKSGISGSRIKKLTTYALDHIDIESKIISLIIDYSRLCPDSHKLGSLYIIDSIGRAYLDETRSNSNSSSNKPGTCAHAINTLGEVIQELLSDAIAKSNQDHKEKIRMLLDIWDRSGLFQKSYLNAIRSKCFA
The experiment in a line: fluorescence polarisation.

The target of assay [7] is T3, Nrd1_(6–151) I130R (S. cerevisiae, UniProt P53617 6-151, I130R).
T3 sequence: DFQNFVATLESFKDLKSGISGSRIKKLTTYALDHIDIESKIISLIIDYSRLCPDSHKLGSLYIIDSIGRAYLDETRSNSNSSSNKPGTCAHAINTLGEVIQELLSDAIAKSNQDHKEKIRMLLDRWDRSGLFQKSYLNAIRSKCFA
The experiment in a line: fluorescence polarisation.

For assay [8], the target named is T4, Nrd1_(6–151) S22D (S. cerevisiae, UniProt P53617 6-151, S22D).
T4 sequence: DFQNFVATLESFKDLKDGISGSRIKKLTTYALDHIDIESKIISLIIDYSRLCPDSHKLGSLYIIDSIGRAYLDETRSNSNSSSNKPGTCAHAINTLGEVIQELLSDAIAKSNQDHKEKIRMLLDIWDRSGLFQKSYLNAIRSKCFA
The experiment in a line: fluorescence polarisation.

Assay [9] concerns the target T5, Nrd1_(6–151) K21D (S. cerevisiae, UniProt P53617 6-151, K21D).
T5 sequence: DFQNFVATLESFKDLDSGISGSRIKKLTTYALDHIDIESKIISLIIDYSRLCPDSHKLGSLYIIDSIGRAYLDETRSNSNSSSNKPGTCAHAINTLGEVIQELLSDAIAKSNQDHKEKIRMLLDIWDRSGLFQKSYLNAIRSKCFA
The experiment in a line: fluorescence polarisation.

Assay [10] addresses T6, Nrd1_(6–151) K21P (S. cerevisiae, UniProt P53617 6-151, K21P).
T6 sequence: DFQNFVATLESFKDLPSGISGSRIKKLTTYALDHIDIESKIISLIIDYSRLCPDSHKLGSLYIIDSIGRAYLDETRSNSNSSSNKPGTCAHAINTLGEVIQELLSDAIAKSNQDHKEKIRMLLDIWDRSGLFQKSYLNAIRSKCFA
Description: fluorescence polarisation.

For assay [11], the target named is T7, Nrd1_(6–224) (S. cerevisiae, UniProt P53617 6-224).
T7 sequence: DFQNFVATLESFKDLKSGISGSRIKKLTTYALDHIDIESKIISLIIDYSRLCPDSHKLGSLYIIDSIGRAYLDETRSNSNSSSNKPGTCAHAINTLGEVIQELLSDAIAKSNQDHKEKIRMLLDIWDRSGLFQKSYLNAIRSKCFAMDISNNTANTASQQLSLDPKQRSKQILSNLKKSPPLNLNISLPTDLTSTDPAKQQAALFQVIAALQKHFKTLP
The experiment in a line: ITC.

Usually Kd stands for the free concentration of one partner at which half of the binding sites on the other are occupied at equilibrium, for simple one-to-one binding. A low value points to tighter binding. Consider “Nrd1_(6–214) wild-type (from UniProt P53617 6-214) (domain or fragment)”, for which the equilibrium dissociation constant (Kd) in assay [1] was 48 µM.

Take “Nrd1_(6–151) L20D (from UniProt P53617 6-151) (domain or fragment)”: the equilibrium dissociation constant (Kd) in assay [2] was 19 µM.

Consider “Nrd1_(6–151) wild-type (from UniProt P53617 6-151) (domain or fragment)”, for which the Kd in assay [1] worked out at 40 µM; in assay [2] it was 16 µM.

B1: Nrd1Δ151–214 (protein)
chain: MQQDDDFQNFVATLESFKDLKSGISGSRIKKLTTYALDHIDIESKIISLIIDYSRLCPDSHKLGSLYIIDSIGRAYLDETRSNSNSSSNKPGTCAHAINTLGEVIQELLSDAIAKSNQDHKEKIRMLLDIWDRSGLFQKSYLNAIRSKCFALQKHFKTLPSHTSVGTVAPPQAHTITEYGSRRERERERERYNSRRNRSRSPPAPFSQPSTGRKDRYPSVAQDQYSIGAPNTTFGTNNHHLYPDELNVSNNPHYRPKPVSYDSTLPPDHIKVYSRTLFIGGVPLNMKEWDLANVLKPFAEVQSVILNNSRKHAFVKVYSRHEAENVLQNFNKDGALPLRTRWGVGFGPRDCCDYQHGYSIIPMHRLTDADKKWSVSAQWGGTSGQPLVTGIVFEEPDIIVGEGVSSKAISQKMPTDSGRNGPRSGKPNKSGSISSISPVPYGNAPLASPPPQQYVQPMMQQPYGYAPNQPLPSQGPAAAAPPVPQQQFDPTAQLNSLMNMLNQQQQQQQQS
modifications: left off: TAP (with Protein A module), end not stated, kept
As for B1, in [3], the “Association with Pol II” value was “greatly reduced association with Pol II”.

B2: Nrd1_307–560: containing only the RNA binding region and the C-terminal region (protein)
chain: PDELNVSNNPHYRPKPVSYDSTLPPDHIKVYSRTLFIGGVPLNMKEWDLANVLKPFAEVQSVILNNSRKHAFVKVYSRHEAENVLQNFNKDGALPLRTRWGVGFGPRDCCDYQHGYSIIPMHRLTDADKKWSVSAQWGGTSGQPLVTGIVFEEPDIIVGEGVSSKAISQKMPTDSGRNGPRSGKPNKSGSISSISPVPYGNAPLASPPPQQYVQPMMQQPYGYAPNQPLPSQGPAAAAPPVPQQQFDPTAQLNS
Turning to B2, the “CTD binding of Nrd1 variant” value in [4] is on record as “no CTD binding”.

B3: Nrd1Δ6–150 (protein)
chain: MQQDDAMDISNNTANTASQQLSLDPKQRSKQILSNLKKSPPLNLNISLPTDLTSTDPAKQQAALFQVIAALQKHFKTLPSHTSVGTVAPPQAHTITEYGSRRERERERERYNSRRNRSRSPPAPFSQPSTGRKDRYPSVAQDQYSIGAPNTTFGTNNHHLYPDELNVSNNPHYRPKPVSYDSTLPPDHIKVYSRTLFIGGVPLNMKEWDLANVLKPFAEVQSVILNNSRKHAFVKVYSRHEAENVLQNFNKDGALPLRTRWGVGFGPRDCCDYQHGYSIIPMHRLTDADKKWSVSAQWGGTSGQPLVTGIVFEEPDIIVGEGVSSKAISQKMPTDSGRNGPRSGKPNKSGSISSISPVPYGNAPLASPPPQQYVQPMMQQPYGYAPNQPLPSQGPAAAAPPVPQQQFDPTAQLNSLMNMLNQQQQQQQQS
modifications: left off: TAP (with Protein A module), end not stated, kept
Consider B3, for which the “Association with Pol II” value in [3] is given as “greatly reduced association with Pol II”.

B4: Nrd1_(6–151) K21P (domain or fragment)
chain: DFQNFVATLESFKDLPSGISGSRIKKLTTYALDHIDIESKIISLIIDYSRLCPDSHKLGSLYIIDSIGRAYLDETRSNSNSSSNKPGTCAHAINTLGEVIQELLSDAIAKSNQDHKEKIRMLLDIWDRSGLFQKSYLNAIRSKCFA
Take B4: the Kd in assay [1] amounted to 70 µM; in assay [2] it was 48 µM.

B5: Nrd1_(6–151) D70R (domain or fragment)
chain: DFQNFVATLESFKDLKSGISGSRIKKLTTYALDHIDIESKIISLIIDYSRLCPDSHKLGSLYIIRSIGRAYLDETRSNSNSSSNKPGTCAHAINTLGEVIQELLSDAIAKSNQDHKEKIRMLLDIWDRSGLFQKSYLNAIRSKCFA
In the case of B5, the Kd in assay [1] was 680 µM; in [2] it was 100 µM.

B6: Nrd1_(6–151) S22D (domain or fragment)
chain: DFQNFVATLESFKDLKDGISGSRIKKLTTYALDHIDIESKIISLIIDYSRLCPDSHKLGSLYIIDSIGRAYLDETRSNSNSSSNKPGTCAHAINTLGEVIQELLSDAIAKSNQDHKEKIRMLLDIWDRSGLFQKSYLNAIRSKCFA
For B6, the Kd came out at 140 µM in assay [1] and 100 µM in assay [2].

B7: Nrd1_(6–151) K21D (domain or fragment)
chain: DFQNFVATLESFKDLDSGISGSRIKKLTTYALDHIDIESKIISLIIDYSRLCPDSHKLGSLYIIDSIGRAYLDETRSNSNSSSNKPGTCAHAINTLGEVIQELLSDAIAKSNQDHKEKIRMLLDIWDRSGLFQKSYLNAIRSKCFA
Consider B7, for which the dissociation constant Kd came out at 95 µM in assay [1] and 70 µM in assay [2].

B8: Nrd1_(6–151) I130R (domain or fragment)
chain: DFQNFVATLESFKDLKSGISGSRIKKLTTYALDHIDIESKIISLIIDYSRLCPDSHKLGSLYIIDSIGRAYLDETRSNSNSSSNKPGTCAHAINTLGEVIQELLSDAIAKSNQDHKEKIRMLLDRWDRSGLFQKSYLNAIRSKCFA
For the molecule B8, the dissociation constant Kd in [1] turned out to be 215 µM; in assay [2] it was 27 µM.

Regarding Y[pS]PTSPSY[pS]PTSPS [unlabeled double-repeat CTD-Ser2P peptide], the Kd stood at 390 µM in [5]; 560 µM in assay [6]; 550 µM in assay [7]; 470 µM in assay [8]; 610 µM in [9]; 380 µM in [10].

As usually defined, the stoichiometry N is the number of molecules, sites or subunits per partner or assembly. For ENVNYDLLQKQVKYIMDSNMLNLPQFQHLPQEEKMSAILAMLNSN (domain or fragment) [Nab3_(204–248)], in [11], the Kd was found to be 0.16 µM and the “stoichiometry N” value is 1.
